# Measurements from US20250313634A1 (WUXI BIOLOGICS SHANGHAI, published 2025).
# B1: 1.14.4 (antibody, V domains shown)
# VH: EVQLLESGGGLVQPGGSLRLSCAASGFTFSSYAMSWVRQAPGKGLEWVSGISGSGGFTYYADSVKGRFTISRDNSKNTLYLQMNSLRAEDTAVYYCAKPPRGYNYGPFDYWGQGTLVTVSS
# VL: SYVLTQPPSVSVAPGQTARITCGGNNIGSKSVHWYQQKPGQAPVLVVYDDSDRPSGIPERFSGSNSGNTATLTISRVEAGDEADYYCQVWDSSSDHVVFGGGTKLTVL
# notes: Fully human monoclonal antibody with a human constant region of IgG4 isotype
# How the values were obtained:
# Experiment in all cases: capture ELISA on coated 1.14.4; relative to silent alanine substitutions
# [1] = target: T1, hPD-L1_ECD.His point mutant R186A (human, UniProt Q9NZQ7 19-238)
# T1 construct: extracellular domain
# T1 sequence (Q9NZQ7 19-238 R186A): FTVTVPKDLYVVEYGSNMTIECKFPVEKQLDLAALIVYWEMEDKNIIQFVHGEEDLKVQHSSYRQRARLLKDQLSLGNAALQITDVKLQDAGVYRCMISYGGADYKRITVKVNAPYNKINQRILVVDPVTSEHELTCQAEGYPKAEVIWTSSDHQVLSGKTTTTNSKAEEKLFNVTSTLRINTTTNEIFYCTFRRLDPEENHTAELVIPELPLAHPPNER
# Description: (§1) After interacting with the supernatant that contains quantified PD-L1 mutant or human/mouse PD-L1_ECD.His protein (Sino Biological, China), HRP conjugated anti-His antibody (1:5000; Rockland Immunochemicals, Pottstown, PA) was added as detection antibody. Absorbance was normalized according to the average of control mutants. After setting an additional cutoff to the binding fold change (<0.55), the final determined epitope residues were identified.
# (§2) The observed binding reductions most probably resulted from the instability or even collapse of hPD-L1 structure after alanine substitutions. After setting an additional cutoff to the binding fold change (<0.55), the final determined epitope residues were listed in Table 3.
# [2] = target: T2, hPD-L1_ECD.His point mutant K75A (human, UniProt Q9NZQ7 19-238)
# T2 construct: extracellular domain
# T2 sequence (Q9NZQ7 19-238 K75A): as the sequence (Q9NZQ7 19-238 R186A) above, with K57A, A168R counted along it
# Description: as §1, §2
# [3] = target: T3, hPD-L1_ECD.His point mutant V76A (human, UniProt Q9NZQ7 19-238)
# T3 construct: extracellular domain
# T3 sequence (Q9NZQ7 19-238 V76A): as the sequence (Q9NZQ7 19-238 R186A) above, with V58A, A168R counted along it
# Description: as §1, §2
# [4] = target: T4, hPD-L1_ECD.His point mutant K162A (human, UniProt Q9NZQ7 19-238)
# T4 construct: extracellular domain
# T4 sequence (Q9NZQ7 19-238 K162A): as the sequence (Q9NZQ7 19-238 R186A) above, with K144A, A168R counted along it
# Description: as §1, §2
# [5] = target: T5, hPD-L1_ECD.His point mutant A98G (human, UniProt Q9NZQ7 19-238)
# T5 construct: extracellular domain
# T5 sequence (Q9NZQ7 19-238 A98G): as the sequence (Q9NZQ7 19-238 R186A) above, with A80G, A168R counted along it
# Description: as §1, §2
# [6] = target: T6, hPD-L1_ECD.His point mutant E71A (human, UniProt Q9NZQ7 19-238)
# T6 construct: extracellular domain
# T6 sequence (Q9NZQ7 19-238 E71A): as the sequence (Q9NZQ7 19-238 R186A) above, with E53A, A168R counted along it
# Description: as §1, §2
# [7] = target: T7, hPD-L1_ECD.His point mutant K185A (human, UniProt Q9NZQ7 19-238)
# T7 construct: extracellular domain
# T7 sequence (Q9NZQ7 19-238 K185A): as the sequence (Q9NZQ7 19-238 R186A) above, with K167A, A168R counted along it
# Description: as §1, §2
# [8] = target: T8, hPD-L1_ECD.His point mutant P43A (human, UniProt Q9NZQ7 19-238)
# T8 construct: extracellular domain
# T8 sequence (Q9NZQ7 19-238 P43A): as the sequence (Q9NZQ7 19-238 R186A) above, with P25A, A168R counted along it
# Description: as §1, §2
# [9] = target: T9, hPD-L1_ECD.His point mutant T201A (human, UniProt Q9NZQ7 19-238)
# T9 construct: extracellular domain
# T9 sequence (Q9NZQ7 19-238 T201A): as the sequence (Q9NZQ7 19-238 R186A) above, with A168R, T183A counted along it
# Description: as §1, §2
# [10] = target: T10, hPD-L1_ECD.His point mutant P24A (human, UniProt Q9NZQ7 19-238)
# T10 construct: extracellular domain
# T10 sequence (Q9NZQ7 19-238 P24A): as the sequence (Q9NZQ7 19-238 R186A) above, with P6A, A168R counted along it
# Description: as §1, §2
# [11] = target: T11, hPD-L1_ECD.His point mutant T196A (human, UniProt Q9NZQ7 19-238)
# T11 construct: extracellular domain
# T11 sequence (Q9NZQ7 19-238 T196A): as the sequence (Q9NZQ7 19-238 R186A) above, with A168R, T178A counted along it
# Description: as §1, §2
# [12] = target: T12, hPD-L1_ECD.His point mutant T22A (human, UniProt Q9NZQ7 19-238)
# T12 construct: extracellular domain
# T12 sequence (Q9NZQ7 19-238 T22A): as the sequence (Q9NZQ7 19-238 R186A) above, with T4A, A168R counted along it
# Description: as §1, §2
# [13] = target: T13, hPD-L1_ECD.His point mutant E237A (human, UniProt Q9NZQ7 19-238)
# T13 construct: extracellular domain
# T13 sequence (Q9NZQ7 19-238 E237A): as the sequence (Q9NZQ7 19-238 R186A) above, with A168R, E219A counted along it
# Description: as §1, §2
# [14] = target: T14, hPD-L1_ECD.His point mutant L74A (human, UniProt Q9NZQ7 19-238)
# T14 construct: extracellular domain
# T14 sequence (Q9NZQ7 19-238 L74A): as the sequence (Q9NZQ7 19-238 R186A) above, with L56A, A168R counted along it
# Description: as §1, §2
# [15] = target: T15, hPD-L1_ECD.His point mutant D122A (human, UniProt Q9NZQ7 19-238)
# T15 construct: extracellular domain
# T15 sequence (Q9NZQ7 19-238 D122A): as the sequence (Q9NZQ7 19-238 R186A) above, with D104A, A168R counted along it
# Description: as §1, §2
# [16] = target: T16, hPD-L1_ECD.His point mutant N96A (human, UniProt Q9NZQ7 19-238)
# T16 construct: extracellular domain
# T16 sequence (Q9NZQ7 19-238 N96A): as the sequence (Q9NZQ7 19-238 R186A) above, with N78A, A168R counted along it
# Description: as §1, §2
# [17] = target: T17, hPD-L1_ECD.His point mutant S80A (human, UniProt Q9NZQ7 19-238)
# T17 construct: extracellular domain
# T17 sequence (Q9NZQ7 19-238 S80A): as the sequence (Q9NZQ7 19-238 R186A) above, with S62A, A168R counted along it
# Description: as §1, §2
# [18] = target: T18, hPD-L1_ECD.His point mutant Y160A (human, UniProt Q9NZQ7 19-238)
# T18 construct: extracellular domain
# T18 sequence (Q9NZQ7 19-238 Y160A): as the sequence (Q9NZQ7 19-238 R186A) above, with Y142A, A168R counted along it
# Description: as §1, §2
# [19] = target: T19, hPD-L1_ECD.His point mutant S34A (human, UniProt Q9NZQ7 19-238)
# T19 construct: extracellular domain
# T19 sequence (Q9NZQ7 19-238 S34A): as the sequence (Q9NZQ7 19-238 R186A) above, with S16A, A168R counted along it
# Description: as §1, §2
# [20] = target: T20, hPD-L1_ECD.His point mutant G95A (human, UniProt Q9NZQ7 19-238)
# T20 construct: extracellular domain
# T20 sequence (Q9NZQ7 19-238 G95A): as the sequence (Q9NZQ7 19-238 R186A) above, with G77A, A168R counted along it
# Description: as §1, §2
# [21] = target: T21, hPD-L1_ECD.His point mutant T203A (human, UniProt Q9NZQ7 19-238)
# T21 construct: extracellular domain
# T21 sequence (Q9NZQ7 19-238 T203A): as the sequence (Q9NZQ7 19-238 R186A) above, with A168R, T185A counted along it
# Description: as §1, §2
# [22] = target: T22, hPD-L1_ECD.His point mutant A109G (human, UniProt Q9NZQ7 19-238)
# T22 construct: extracellular domain
# T22 sequence (Q9NZQ7 19-238 A109G): as the sequence (Q9NZQ7 19-238 R186A) above, with A91G, A168R counted along it
# Description: as §1, §2
# [23] = target: T23, hPD-L1_ECD.His point mutant I54A (human, UniProt Q9NZQ7 19-238)
# T23 construct: extracellular domain
# T23 sequence (Q9NZQ7 19-238 I54A): as the sequence (Q9NZQ7 19-238 R186A) above, with I36A, A168R counted along it
# Description: as §1, §2
# [24] = target: T24, hPD-L1_ECD.His point mutant G70A (human, UniProt Q9NZQ7 19-238)
# T24 construct: extracellular domain
# T24 sequence (Q9NZQ7 19-238 G70A): as the sequence (Q9NZQ7 19-238 R186A) above, with G52A, A168R counted along it
# Description: as §1, §2
# [25] = target: T25, hPD-L1_ECD.His point mutant D215A (human, UniProt Q9NZQ7 19-238)
# T25 construct: extracellular domain
# T25 sequence (Q9NZQ7 19-238 D215A): as the sequence (Q9NZQ7 19-238 R186A) above, with A168R, D197A counted along it
# Description: as §1, §2
# [26] = target: T26, hPD-L1_ECD.His point mutant G120A (human, UniProt Q9NZQ7 19-238)
# T26 construct: extracellular domain
# T26 sequence (Q9NZQ7 19-238 G120A): as the sequence (Q9NZQ7 19-238 R186A) above, with G102A, A168R counted along it
# Description: as §1, §2
binder,measurement,setting,value
B1,fold change,[1],0.805 fold
same,fold change,[2],1.01 fold
same,fold change,[3],0.76 fold
same,fold change,[4],0.99 fold
same,fold change,[5],1.01 fold
same,fold change,[6],0.772 fold
same,fold change,[7],0.853 fold
same,fold change,[8],0.834 fold
same,fold change,[9],0.781 fold
same,fold change,[10],0.907 fold
same,fold change,[11],0.898 fold
same,fold change,[12],0.875 fold
same,fold change,[13],0.956 fold
same,fold change,[14],1.02 fold
same,fold change,[15],1.22 fold
same,fold change,[16],0.924 fold
same,fold change,[17],0.974 fold
same,fold change,[18],0.505 fold
same,fold change,[19],0.813 fold
same,fold change,[20],0.668 fold
same,fold change,[21],0.87 fold
same,fold change,[22],0.797 fold
same,fold change,[23],0.918 fold
same,fold change,[24],0.602 fold
same,fold change,[25],0.811 fold
same,fold change,[26],0.895 fold
